Measurements as given in publication PMC4136698.
Like-named read-outs stand apart in the source and are kept apart here.

What was measured:
Assay in all cases: pull-down
[1] = molecular target: SNAP tag–polyproline peptide fusion (…)
[2] = molecular target: SH2 affinity peptide (EPQpYEEIPIYL)
[3] = molecular target: SH2 affinity peptide (EPQpYEEIPIYL); remark: listed apart in the source

How did the percent of kinase retained by the immobilized SH3 domain ligand [1] turn out when Hck^Y527F (enzyme) was run?
The percent of kinase retained by the immobilized SH3 domain ligand was 38%.

And the percent of total kinase retained on beads [1]?
Its percent of total kinase retained on beads is 2%.

For Hck (residues 84–531) (enzyme), which percent retained relative to Hck–1 [2] is on record?
The percent retained relative to Hck–1 was 2%.

And the percent retained relative to Hck–1 [3]?
The percent retained relative to Hck–1 was 17%.
